Here are results for 1 protein from publication doi:10.1101/2022.08.13.503841 (bioRxiv, 2022).

For orientation: stoichiometry N means a count of units in the complex or per binding partner.

The series deals with the molecule itself. Put plainly: cryo-EM structure.

B1: Chikungunya virus non-structural protein 1 (nsP1) (enzyme)
chain: MDPVYVDIDADSAFLKALQRAYPMFEVEPRQVTPNDHANARAFSHLAIKLIEQEIDPDSTILDIGSAPARRMMSDRKYHCVCPMRSAEDPERLANYARKLASAAGKVLDRNISGKIGDLQAVMAVPDTETPTFCLHTDVSCRQRADVAIYQDVYAVHAPTSLYHQAIKGVRLAYWVGFDTTPFMYNAMAGAYPSYSTNWADEQVLKAKNIGLCSTDLTEGRRGKLSIMRGKKLEPCDRVLFSVGSTLYPESRKLLKSWHLPSVFHLKGKLSFTCRCDTVVSCEGYVVKRITMSPGLYGKTTGYAVTHHADGFLMCKTTDTVDGERVSFSVCTYVPATICDQMTGILATEVTPEDAQKLLVGLNQRIVVNGRTQRNTNTMKNYMIPVVAQAFSKWAKECRKDMEDEKLLGVRERTLTCCCLWAFKKQKTHTVYKRPDTQSIQKVQAEFDSFVVPSLWSSGLSIPLRTRIKWLLSKVPKTDLTPYSGDAQEARDAEKEAEEEREAELTLEALPPLQAAQEDVQVEIDVEQLEDRAGA
For the protein B1, the “stoichiometry N” value is 12.
